Data published in the supplement of paper PMC9170038.

System: K4 kissing-loop RNA reporter
Assay: apparent KD of K4 kissing-loop reporter; higher = weaker reporter binding
Conditions: Eterna round: R107
Experimental: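 RNA-MaP round R107: designed RNA switches with theophylline, tryptophan, arginine or FMN aptamers are transcribed on-chip within common flanks. They are titrated with a labelled K4 kissing-loop RNA reporter in RNA-MaP buffer (100 mM Tris pH 7.5, 80 mM KCl, 4 mM MgCl2), without ligand or with the indicated ligand. Median apparent KD per design.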

[1] = input ligand: theophylline 20 uM
[2] = input ligand: tryptophan 2.4 mM
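Further: bound reporter read as fluorescence of individual clusters on recovered sequencing chips by microscopy, with normalized cluster intensities fitted with a binding model.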

| Sequence | apparent KD of K4 kissing-loop reporter (input ligand: FMN 200 uM) [nM] | apparent KD of K4 kissing-loop reporter (input ligand: arginine 13.2 mM) [nM] | apparent KD of K4 kissing-loop reporter (input ligand: none) [nM] | apparent KD of K4 kissing-loop reporter [1] [nM] | apparent KD of K4 kissing-loop reporter [2] [nM] |
| --- | --- | --- | --- | --- | --- |
| AGUUCUUGCCGAAGGAGCGAGGCAGAGUGAUGUUCUGCAGAUGUCGAAAGACAUCAACUGCCUCAGGUAGGUCGCGGCAUGAACA [#05 K4 Arginine B Exclusion] | 114 | 74 | 99.6 | 87.3 | 108 |
| CGAAGAAAGGUAUGUGGGAUCUGCGCGUAACGAGGACCGGUACGGCCGCCACUCGACGUCGCAUACGGCCCAGUGAUGUUGGGUG [theeternabot_sameState_KL_Trp_A_14] | 74 | 55.9 | 75.4 | 74.9 | 53.4 |
| UGUUGAGUGAUGUUCGAUGUAGUUCAUUCAGAGGAUAUAGGGUGGGCUAGAAGGCUGAAAAGUGCUUCGAGUGAUGUUCGAAGAU [Exclusion FMN A GF 7] | 77.3 | 77.7 | 99.3 | 89.5 | 91.1 |
| GUGCAGUGAUGUUGCACGAGGAAAGACGAUACCAGCCGUAAAUAAGGCCCUUGGCAGCGUGGACUAGCAUAAAGUAUGCUAGCCU [Isenaonle] | 118 | 104 | 123 | 116 | 96.5 |
| CAAUGAGUAUAAGAUGAUAUCAUAACAGAAGGAGCGAGUGAUAACUCAGGUAGGUCGCUGAAUUUAUCGAGUGAUGUUCGAUAAA [whbob_SS_Arginine_A_sa116] | 205 | 154 | 187 | 166 | 184 |
| UAAUAUAAUCUGUCGUAAACAAUAAUUAGUCAGGAUAUCGUAUAUUCGAGAAGGGACACUAUCUAGUGAUGUUAGAUAUUUCGUU [JR_SSFMNA_Sub026] | 45.5 | 76.4 | 53.4 | 67.5 | 47.6 |
| AGCAUUAUCAGAAGGAGCGUGUAUAAAUCAAUAGUAUUGUAUUCGAGUGAUGUUCGUAAUACACAGGUAGGUCGCUGAUAUUGCA [JR_ExcArginiB_Sub002] | 182 | 172 | 170 | 175 | 161 |
| CGCAAGCAGCCAGUGAUGUUGGCCGCCUUGCGAGGACCGGUACGGCCGCCACUCGAAGGCGGCUACUGAUAAACCGUCUAACGGA [KL-XTryp-A9] | 112 | 96.3 | 105 | 95.4 | 274 |
| UUUUUUAAUGGAAGGAGCGCGUGGGCGCAGUGAUGUUGCGCCCGACAUCACUUCAACUUAACGCAGGUAGGUCGCCAUUAUUUUU [Arginine B (Excl) V6] | 136 | 128 | 122 | 119 | 127 |
| GCGGGCCCUGGAGGAUAUGAGUCGAGUGAUGUUCGGCGGUCCAUGCCGAUGCGGCGUUAUGCCCUUUUAGAAGGCCAGGGCCCGC [#2 Exclusion - FMN B Attempt #7 (HarryS)] | 392 | 236 | 310 | 243 | 277 |
| UUUUAGGUAUCUGAUACCAGAGAAAAUAUAUGUAGUGAUGUUAUAUACAAAAUAAUUAAGCUCCCUUGGCAGCAGUAUUAAUUUU [AstrosExc-TheB#3] | 825 | 742 | 854 | 917 | 717 |
| GAGCGGUGGAGGUUACCGCUAUUCUGAGAAGGAGCGCAGAUGACUGCAGGUAGGUCGCUUAGAGCUUGCAGUGAUGUUGCAAGUU [Edrirama] | 197 | 177 | 213 | 193 | 213 |
| GCAAUUCUCAGUGAUGUUGAGUAAUCGGAAGGAGCGCGUGAAAACGCAGGUAGGUCGCCGAAACAUGAAGUAUCUUCGUGUUUGC [Arginine A K4 24] | 180 | 190 | 215 | 226 | 168 |
| GGGAGAAGAGCGGCCGCCACUCAGACAGCAGCAGAAUAUAGUGAUGUUAUAUAGGAAAGGCGGAGGAGGACCGGGCUUAAGAGGG [#20 K4 Tryptophan B Same State] | 308 | 303 | 278 | 362 | 316 |
| AAAUAAAGCAGUCACCCAGUGAUGUUGGAAGGAGCGUGCGAAAGCACAGGUAGGUCGCCGAUAAAGGACAAAGUCCGUGGCUGCA [#SwitchBubble 29 #K4Early] | 275 | 350 | 253 | 279 | 190 |
| UGGGAUUUGUCAGGAUAUGAGUGCAGUGAUGUUGCACUUAAUAAAGUACAUAGGCCCUGCUGGCACUCAGAAGGGACGGUGAUGC [Lalasobeer] | 122 | 73.6 | 103 | 86.7 | 92.4 |
| CGUUUAUAGCAGGAUACCAGUACCCAUAAAGUACGUUAAUAGUAGAGUGAUGUUCUAAAGUACCCUUGGCAGCUUCCAGUGAGUG [ExTheophylB.S] | 102 | 157 | 142 | 165 | 85.3 |
| UUCAGUGAUGUUGAACACUGUUGUAUAAACUAGGAUAUGCUGAUAAGCAGAAGGAGUGAUGUUCCGUUCAUCAUCAGAAUUAAAU [KL-XFMN-A3] | 673 | 400 | 360 | 424 | 250 |
| UGAUACCAGACGGCCGCCACUCCCGCAGGUCAAAGACCUGCGAAGAUGGUUCUUCAGUGAUGUUGGAGGACCGGGUCUGGUAUCU [FiskerMod 23 - Jieux - Exclusion - Tryptophan B] | 173 | 128 | 137 | 140 | 314 |
| UGUGUUUACCUGACUCAGUGAUGUUGAGAAGGAGCGUGCAAAAGCACAGGUAGGUCGCUCAACCUAAAUUCAGGUGAGCACUAAA | 270 | 201 | 255 | 252 | 264 |
| GGAUUGCGUUCGGCCGCCACUAGACUACAUUCCACGCCCGACCCGUUUUUAAGUGAUGUUUAAACUAGGACCGGGAACCGAUUUC [theeternabot_exclusion_KL_Trp_B_33] | 435 | 291 | 395 | 388 | – |

| Sequence | apparent KD of K4 kissing-loop reporter (input ligand: FMN 200 uM) [nM] | apparent KD of K4 kissing-loop reporter (input ligand: arginine 13.2 mM) [nM] | apparent KD of K4 kissing-loop reporter (input ligand: none) [nM] | apparent KD of K4 kissing-loop reporter [1] [nM] | apparent KD of K4 kissing-loop reporter [2] [nM] |
| --- | --- | --- | --- | --- | --- |
| GUAUGUGGAAACACGUACUUGUAUCCUAAGCAGGAUAUGCGGAAACGCAGAAGGGCUACCAGCGAGUUUAUCCAGUGAUGUUGGA [Ex FMN A 12] | 289 | 235 | 269 | 264 | 288 |
| GUUUGGCGGGCGGCCGCCACUCGGACGAGUCGCAGUGAUGUUGUGGUUUGCCAGUCGUCUUCAUCGAGGACCGGGUUUGUCGGGC [Exclusion Tryptophan B GF 19] | 495 | 380 | 600 | 571 | 496 |
| AUAAACUUGCAGUGAUGUUGCAAGUGAGACUAGGAUAUCAGGAAGCUGAGAAGGAGUCAUCUCCUUCAAACAUCACUAUGAAGGA [whbob_SS_FMNA__2th178] | 403 | 287 | 336 | 232 | 292 |
| AGAAGGAGAACUGCAAGAACUCCUUCAGACUAGGAUAUCAGGAAACUGAGAAGGAGUCAACUUGCAGUGAUGUUGCAAGAAUAAU [[F]''-[K]'-[F]'-[F1]-[F2]-[K1]-[K2]_Design1] | 155 | 114 | 119 | 103 | 131 |
| AUGGUAUUGCGAGGAUAUCCUUCAAAUGUGACACUAACGGCAGUGAUGUUGCCGGCGUCUUUUUGAGGAGAAGGCGCGGUGUUAU [Exclusion FMN B GF 24] | 114 | 112 | 129 | 114 | 114 |
| AAUUUCGGAUACAUCAUAGUUUUAAUUCGGCGAGGACCGGUACGGCCGCCACUCGGUAUAGACGCGUCCAGUGAUGUUGGCGCUU [theeternabot_sameState_KL_Trp_A_45] | 262 | 193 | 237 | 260 | 223 |
| CAGGCCGAGUGAUGUUCGGUCUGAGUGAUAAAGGAUAUAAGGGAUUUUAGAAGGUUAUCUAAACAGACCAAACAUCUAUCCACUC [theeternabot_exclusion_KL_FMN_A_16] | 221 | 128 | 138 | 145 | 122 |
| CCUUCUCUUGAUAGUGAUGUUGUCGAGGACAAGGAUAUCAUCUCAAUGAGAAGGUGUCCUUGAUAACAUGGAGGUCUGAAACAGA [Omei KL FMN A Exc C v10] | 468 | 394 | 333 | 365 | 420 |
| UGGAGUUGACGAAAAGUCAACUCCCGAGAAGGAGCGGACGAAAGUCCAGGUAGGUCGCUCGCUACCAGUGAUGUUGGUACUGAAA | 125 | 180 | 126 | 160 | 105 |
| GCUAAGGAGUGAUGUUCCAAGUGAUGUUAACGAGGACCGGUACGGCCGCCACUCGAUACGGCCGGACCGUAAGAUAAACUACAGC [Same State - Tryptophan A (Freestyle 6)] | 206 | 182 | 213 | 279 | 194 |
| AGUGAUGUAGUGUGUUGUUUGUGAAGUGAUCGAGGACCGGUACGGCCGCCACUCGAGUGAUGAGUGAGUGAUGUUUGUUUAGUGG [#18 K4 Tryptophan A Same State] | 379 | 283 | 376 | 412 | 303 |
| AGUCCACUCUAAAGAGUGGACCUAAGGGAUACCAGUGAUGUUGGUCACCCUUGGCAGCCCAGGGCCCGGGAUAAACCCGGGCCCA [#09 K4 Theophylline A Exclusion] | 120 | 100 | 113 | 99 | 113 |
| UUAUUGAGCGUUUGUGAGAAGGCGUUCUUCAAGGAUAUCGACGUAACGAGAAGGUGAUUCGUUCCGAGUGAUGUUCGGUACGGGC [theeternabot_sameState_KL_FMN_A_4] | 222 | 185 | 234 | 240 | 199 |
| GGGCCUGGGCCCGGAAGGGCCUGGGCCCGUUAGGAUAUGACGUGAUUCAGAAGGGAUGGGUGGAGUGAUGUUCCACCCGAGAGGG [#2 Same State - FMN A Attempt #25 (HarryS)] | 85.9 | 90.5 | 81.5 | 73.1 | 63.3 |
| GGGCUGGUGCUAGGAUAUGCGAUGAAUGCUCAGAAAACCUUGAGUCCGCAGUGAUGUUGCGGCACCGCAGAAGGAGCUAAGGCUC [Reorinraor] | 129 | 138 | 111 | 171 | 127 |
| AGGAGUGAUGUUCCUACAUAGACGGUCCAACGAGGACCGGUACGGCCGCCACUCGCGACCCAGUGAUGUUGGGAUUCACCGUACA [Exclusion Tryptophan A Gf 14] | 723 | 753 | 818 | 836 | 812 |
| GGCAGUGAUGUUGCCUAAGCAACGCAUGCAGAGGAUAUUCGUUCGGGAAGAAGGCUGCAGCGUUCUCUCGCGAGUGAUGUUCGCG [Same State FMN A GF 23] | 182 | 137 | 165 | 165 | 162 |
| AAGAGGUAGGCGGCCGCCACUAGUUGUGAACACAUACGAGCCAGUGAUGUUGGUAUGGUGGGCGGUAGGACCGGGCCUACCUGAA [Exclusion - Tryptophan B (Freestyle 18)] | 427 | 481 | 496 | 454 | 475 |
| GGGUGGCAGGCGGCCGCCACUCUUAGCAGCCAGUGAGUGAUGUUCGUGGCGGAAGAAUGUUCGUAGAGGACCGGGUUUGUUGUUC [Same State Tryptophan B GF 21] | 262 | 180 | 257 | 254 | 216 |
| GCCGUAGAUUGAAGGAGCGAGGCUACUUAAAGACCGAGUGAUGUUCGGGAACGUGAAACUCCUCAGGUAGGUCGCAAUCUACGGC | 284 | 235 | 280 | 227 | 267 |
| AAGUGAUGUUGUAGUGAUGUUGUGAUGUUGCAGGAUAUAUAGUGAUGUAGAAGGGUAUGUGCAGUUUUCUUUUUUGAGUGUUGAU [aavamullin] | 72.1 | 30.8 | 57.1 | 43.7 | 56.9 |
